Data as given in patent US20180134765A1 (AVIDBIOTICS, published 2018).
Changes are numbered by the printed parent chain. Names may count otherwise.

Assays:
[1] = target: T1, MICB-Fc (UniProt Q29980 23-298); assay: ELISA: ligand-Fc coated at 2 ug/ml, biotinylated NKG2D Y152A ectodomain titrated, streptavidin-HRP
T1 construct: Bought, R&D Systems; not shown: Fc part of the bought reagent
T1 sequence (looked up): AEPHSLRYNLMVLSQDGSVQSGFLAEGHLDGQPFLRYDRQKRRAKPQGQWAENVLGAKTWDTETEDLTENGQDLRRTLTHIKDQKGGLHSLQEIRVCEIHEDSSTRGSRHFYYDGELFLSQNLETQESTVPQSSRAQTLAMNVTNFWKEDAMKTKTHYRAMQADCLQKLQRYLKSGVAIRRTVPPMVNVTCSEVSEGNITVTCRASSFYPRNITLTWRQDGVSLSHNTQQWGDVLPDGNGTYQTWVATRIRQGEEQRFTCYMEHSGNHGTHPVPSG

[2] = target: T2, ULBP4-Fc (UniProt Q8TD07 31-225); assay: as above
T2 construct: Bought, R&D Systems; not shown: Fc part of the bought reagent
T2 sequence (looked up): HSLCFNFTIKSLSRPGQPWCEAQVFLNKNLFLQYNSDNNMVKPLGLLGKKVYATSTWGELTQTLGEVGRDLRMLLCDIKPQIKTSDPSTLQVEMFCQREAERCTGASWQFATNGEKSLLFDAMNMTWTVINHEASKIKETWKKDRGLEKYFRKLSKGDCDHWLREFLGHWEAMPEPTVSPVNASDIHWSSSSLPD

[3] = target: T3, ULBP3-Fc (UniProt Q9BZM4 30-217); assay: as above
T3 construct: Bought, R&D Systems; not shown: Fc part of the bought reagent
T3 sequence (looked up): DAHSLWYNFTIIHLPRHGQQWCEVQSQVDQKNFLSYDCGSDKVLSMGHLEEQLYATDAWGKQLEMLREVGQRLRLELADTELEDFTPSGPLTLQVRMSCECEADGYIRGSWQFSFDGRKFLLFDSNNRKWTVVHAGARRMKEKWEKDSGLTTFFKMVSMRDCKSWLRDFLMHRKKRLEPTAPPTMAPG

[4] = target: MICwed-Fc; assay: as above
[5] = target: T4, ULBP2-Fc (UniProt Q9BZM5 26-217); assay: as above
T4 construct: Bought, R&D Systems; not shown: Fc part of the bought reagent
T4 sequence (looked up): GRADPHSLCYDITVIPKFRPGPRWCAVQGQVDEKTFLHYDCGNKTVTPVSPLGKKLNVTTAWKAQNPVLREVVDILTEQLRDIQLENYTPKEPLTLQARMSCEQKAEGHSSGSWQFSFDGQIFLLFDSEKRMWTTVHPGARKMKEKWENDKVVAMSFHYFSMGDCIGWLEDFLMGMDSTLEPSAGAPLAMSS

[6] = target: T5, MICA-Fc; assay: as above
T5 construct: also called natural α1-α2-α3-Fc fusion
T5 chain: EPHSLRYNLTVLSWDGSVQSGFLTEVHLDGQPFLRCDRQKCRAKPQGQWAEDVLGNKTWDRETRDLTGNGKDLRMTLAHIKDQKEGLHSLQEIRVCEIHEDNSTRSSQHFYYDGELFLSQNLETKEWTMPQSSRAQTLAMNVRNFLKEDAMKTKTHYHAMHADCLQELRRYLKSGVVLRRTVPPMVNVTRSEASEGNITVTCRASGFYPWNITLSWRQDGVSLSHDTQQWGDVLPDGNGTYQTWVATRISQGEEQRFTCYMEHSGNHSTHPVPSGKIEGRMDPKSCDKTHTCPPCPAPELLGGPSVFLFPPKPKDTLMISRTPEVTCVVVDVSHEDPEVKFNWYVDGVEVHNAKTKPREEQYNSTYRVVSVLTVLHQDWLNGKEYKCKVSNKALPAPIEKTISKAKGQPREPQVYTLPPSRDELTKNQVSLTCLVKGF

[7] = target: T6, ULBP1-Fc (UniProt Q9BZM6 26-216); assay: as above
T6 construct: Bought, R&D Systems; not shown: Fc part of the bought reagent
T6 sequence (looked up): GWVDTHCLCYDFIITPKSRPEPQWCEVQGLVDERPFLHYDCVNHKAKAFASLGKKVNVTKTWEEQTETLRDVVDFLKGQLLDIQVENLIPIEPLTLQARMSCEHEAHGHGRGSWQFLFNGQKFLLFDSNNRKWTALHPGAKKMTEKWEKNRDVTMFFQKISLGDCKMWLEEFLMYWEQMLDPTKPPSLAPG

[8] = target: T1, MICB-Fc; assay: ELISA: ligand-Fc coated at 2 ug/ml, biotinylated NKG2D Y152A, Y199A ectodomain titrated, streptavidin-HRP
[9] = target: T2, ULBP4-Fc; assay: as above
[10] = target: T3, ULBP3-Fc; assay: as above
[11] = target: T7, MICv25-Fc; assay: as above
T7 construct: also called MIC-v25 α1-α2 domain ligand

[12] = target: MICwed-Fc; assay: as above
[13] = target: T4, ULBP2-Fc; assay: as above
[14] = target: T5, MICA-Fc; assay: as above
[15] = target: T6, ULBP1-Fc; assay: as above
[16] = target: T1, MICB-Fc; assay: ELISA: ligand-Fc coated at 2 ug/ml, biotinylated NKG2D Y199A ectodomain titrated, streptavidin-HRP
[17] = target: T2, ULBP4-Fc; assay: as above
[18] = target: T3, ULBP3-Fc; assay: as above
[19] = target: T7, MICv25-Fc; assay: as above
[20] = target: MICwed-Fc; assay: as above
[21] = target: T4, ULBP2-Fc; assay: as above
[22] = target: T5, MICA-Fc; assay: as above
[23] = target: T6, ULBP1-Fc; assay: as above
[24] = target: T8, FGFR3 (plate-coated) (UniProt P22607 23-375); assay: ELISA: FGFR3 coated at 2 ug/ml, protein titrated, bound protein detected with NKG2D-Fc and anti-Fc-HRP
T8 construct: also called Fibroblast Growth Factor Receptor 3
T8 sequence (looked up): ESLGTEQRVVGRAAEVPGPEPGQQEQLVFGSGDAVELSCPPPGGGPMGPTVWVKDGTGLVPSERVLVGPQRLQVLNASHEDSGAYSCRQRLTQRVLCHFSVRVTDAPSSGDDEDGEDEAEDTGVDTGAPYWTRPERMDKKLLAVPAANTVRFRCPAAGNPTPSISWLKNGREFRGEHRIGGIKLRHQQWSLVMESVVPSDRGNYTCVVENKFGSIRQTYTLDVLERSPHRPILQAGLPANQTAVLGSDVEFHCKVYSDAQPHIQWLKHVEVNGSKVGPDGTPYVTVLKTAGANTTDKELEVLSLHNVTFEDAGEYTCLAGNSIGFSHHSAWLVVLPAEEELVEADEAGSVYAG

[25] = target: T8, FGFR3 (plate-coated); assay: ELISA on FGFR3-coated wells after 1 h at 80 C and 1 h at room temperature
[26] = target: T8, FGFR3 (plate-coated); assay: ELISA on FGFR3-coated wells after 1 h at 70 C and 1 h at room temperature

B1: Y152A NKG2D ectodomain (receptor)
chain: EPHHHHHHGLNDIFEAQKIEWHENSLFNQEVQIPLTESYCGPCPKNWICYKNNCYQFFDESKNWYESQASCMSQNASLLKVYSKEDQDLLKLVKSAHWMGLVHIPTNGSWQWEDGSILSPNLLTIIEMQKGDCALYASSFKGYIENCSTPNTYICMQRTV
modifications: biotin on the avitag sequence (BirA)
notes: Expressed with His-avitag; also called non-natural NKG2D mutant Y152A; Y152A mutant NKG2D ectodomain
B1: no binding (tested: 2000 nM) [1]; no binding (tested: 2000 nM) [2]; no binding (tested: 2000 nM) [3]. B1: no binding (tested: 2000 nM) [4]; no binding (tested: 2000 nM) [5]; no binding (tested: 2000 nM) [6]. B1: no binding (tested: 2000 nM) [7].

B2: Y152A plus Y199A NKG2D ectodomain (receptor)
chain: B1 chain with Y143A
modifications: biotin on the avitag sequence (BirA)
notes: Expressed with His-avitag; also called non-natural NKG2D double mutant Y152A and Y199A
B2: no binding (tested: 2000 nM) [8]; no binding (tested: 2000 nM) [9]; no binding (tested: 2000 nM) [10]. B2: no binding (tested: 2000 nM) [11]; no binding (tested: 2000 nM) [12]; no binding (tested: 2000 nM) [13]. B2: no binding (tested: 2000 nM) [14]; no binding (tested: 2000 nM) [15].

B3: Y199A NKG2D ectodomain (receptor)
chain: B1 chain with A96Y, Y143A
modifications: biotin on the avitag sequence (BirA)
notes: Expressed with His-avitag; also called non-natural NKG2D mutant Y199A
B3: no binding (tested: 2000 nM) [16]; no binding (tested: 2000 nM) [17]; no binding (tested: 2000 nM) [18]. B3: no binding (tested: 2000 nM) [19]; no binding (tested: 2000 nM) [20]; no binding (tested: 2000 nM) [21]. B3: no binding (tested: 2000 nM) [22]; no binding (tested: 2000 nM) [23].

B4: MICA-α3-iFv.2 (designed binder)
chain: EPHSLRYNLTVLSWDGSVQSGFLTEVHLDGQPFLRCDRQKCRAKPQGQWAEDVLGNKTWDRETRDLTGNGKDLRMTLAHIKDQKEGLHSLQEIRVCEIHEDNSTRSSQHFYYDGELFLSQNLETKEWTMPQSSRAQTLAMNVRNFLKEDAMKTKTHYHAMHADCLQELRRYLKSGVVLRRTVPPMVQVTRSEASGGSGDRVTITCRASQDVSTAVAWYQQKPGKAPKLLIYSASFLYSGVPSRFSGSGSGTDFTLTISSLQPEDFATYYCQQSYTTPPTFGQGTKVEIKGGSSRSSSSGGGGSGGGGEVQLVESGGGLVQPGGSLRLSCAASGFTFTSTGISWVRQAPGKGLEWVGRIYPTNGSTNYADSVKGRFTISADTSKNTAYLQMNSLRAEDTAVYYCARTYGIYDLYVDYTEYVMDYWGQGTLVTVSSGGSSRSSSSGGGGSGGGGDIQMTQSPSSLSASGGSGQITVTCRASGFYPWNITLSWRQDGVSLSHDTQQWGDVLPDGQGTYQTWVATRISQGEEQRFTCYMEHSGQHSTHPVPSGKGSHHHHHH
notes: His-tagged, monomeric, made in insect cells; also called sMICA-α3-iFv.2
For B4, the “EC50 (read off the curve)” value [24] was about 2 nM, the “EC50 (read off the curve)” value [25] was about 5 nM and the “EC50 (read off the curve)” value [26] was about 5 nM.
